Patent publication US8076300B2, “FGF2-binding peptides and uses thereof” (Tecnogen S.p.A., priority 2006, dated 2011)
Ends that are not written are not given here.

Experiments:
[1] = biological target: T1, FGF2 (Homo sapiens, UniProt P09038); test: Solid phase binding assay, FGF2 binding to immobilized synthetic PTX3 peptides; set-up: made in house; host or cells: E. coli; details: peptides 200 μg/well, FGF2 80 nM
Procedure: (§1) ELISA microplates were incubated for 16 hours at 4° C. with 100 μl/well of 100 mM NaHCO3, pH 9.6 (coating buffer) containing FGF2 (270 nM). Then, wells were overcoated for 2 hours at room temperature with 5% dry milk in coating buffer. […] Then, wells were sequentially incubated for 1 hour at 37° C. with a rabbit polyclonal anti-PTX3 antibody (1:2000 dilution) that recognizes both PTX3 fragments with similar efficiency in Western blot and ELISA, an anti-rabbit biotinylated antibody (1:2000), and 100 μl of streptavidin-horseredish peroxidase (1:5000, Amersham) for 1 hour at room temperature. Then, 100 μl/well of the chromogen substrate 2,29-azinobis(3-ethylbenzthiazolinesulfonic acid) were added. Absorbance values were read at 405 nm in an automatic ELISA reader. In some experiments, 100-μl aliquots of PBS containing biotin-labeled PTX3 (bPTX3) (22 nM) were incubated for 30 minutes at 37° C. onto FGF2-coated wells with or without competitors. Then, wells were washed, and the amount of bound bPTX3 was evaluated as described^17. Alternatively, synthetic PTX3 peptides were immobilized on ELISA microplate wells (200 μg/well) as described above. Then, FGF2 (80 nM) was added and FGF2 bound to immobilized peptides was assessed by 1 hour incubation at 37° C. with a rabbit polyclonal anti-FGF2 antibody (1:7000) followed by immunocomplex detection as described above.
Target sequence in this assay (P09038 134-288): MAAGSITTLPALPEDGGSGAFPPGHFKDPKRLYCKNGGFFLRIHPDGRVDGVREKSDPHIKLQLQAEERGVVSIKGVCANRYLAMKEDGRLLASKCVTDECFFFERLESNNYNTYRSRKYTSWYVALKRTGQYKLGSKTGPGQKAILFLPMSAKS

[2] = biological target: T1, FGF2; test: BIAcore binding assay, FGF2 binding to PTX3 immobilized to a sensorchip; set-up: made in house; host or cells: FGF2: E. coli; PTX3: Chinese hamster ovary cells; details: for inhibition of FGF2 binding to PTX3 immobilized to a BIAcore sensorchip / IC50: FGF2 0.8 μM; for inhibition of FGF2 binding to PTX3 immobilized to a BIAcore sensorchip: increasing peptide concentrations; for IC50: antagonist in mobile phase, read-out: ID50, inhibition of FGF2 binding to the PTX3 surface
Procedure: A BIAcore X apparatus (BIAcore Inc, Piscataway, N.J.) was used. Surface plasmon resonance was exploited to measure changes in refractive index caused by the ability of FGF2 to bind to PTX3 immobilized to a BIAcore sensorchip. To this purpose, PTX3 (2.2 μM) was allowed to react with a flow cell of a CM4 sensorchip that was previously activated with 50 μl of a mixture of 0.2 M N-ethyl-N′-(3-dimethylaminopropyl)-carbodiimide hydrochloride and 0.05 M N-hydroxysuccinimide. These experimental conditions allowed the immobilization of 5,000 resonance units (RUs), corresponding to approximately 0.1 pmoles of PTX3. Similar results were obtained for immobilization of gelatin, here used as a negative control and for blank subtraction. Increasing concentrations of FGF2 with or without synthetic PTX3 peptides were then injected in dilution buffer (PBS plus 0.005% surfactant P20, 5.0 μg/mL CaCl2 and MgCl2) over the PTX3 surface for 4 minutes (to allow their association with immobilized PTX3) and then washed until dissociation was observed.
Target sequence in this assay (P09038 134-288): as above

[3] = system: GM7373 cells; test: Cell proliferation assay, endothelial GM7373 cells; type: cell-based, bovine; details: for inhibition of mitogenic activity exerted by FGF2 / inhibition of FGF2 mitogenic activity by conditioned medium of infected MAE cells: FGF2 0.55 nM; for inhibition of mitogenic activity exerted by FGF2: peptides 66 μM, PTX3 220 nM; for inhibition of FGF2 mitogenic activity by conditioned medium of infected MAE cells: 24 h
Procedure: Cell proliferation assay on endothelial cells was performed as described^22. Briefly, GM7373 or MAE cells were seeded in 96-well dishes at 75,000 cells/cm^2 or 25,000 cells/cm^2, respectively. After 16 h, cells were incubated in fresh medium containing 0.4% FCS plus FGF2 (0.55 nM) in the absence or in the presence of different antagonists. After 24 or 48 h, respectively, cells were trypsinized and counted in a Burker chamber.

[4] = biological target: T1, FGF2; details: cited from earlier work
Target sequence in this assay (P09038 143-288): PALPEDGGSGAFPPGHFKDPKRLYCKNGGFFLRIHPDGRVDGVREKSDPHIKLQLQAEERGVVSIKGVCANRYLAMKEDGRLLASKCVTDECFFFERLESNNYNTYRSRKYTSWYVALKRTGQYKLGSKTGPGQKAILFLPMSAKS

[5] = system: chick embryo CAM; test: Chicken embryo chorioallantoic membrane (CAM) assay, FGF2-induced neovascularization; type: in vivo; details: for macroscopic vessels converging towards the implant: FGF2 16 pmoles/embryo, with or without 3.0 nmoles of peptide, 72 hours
Procedure: Alginate beads (5 μl) containing vehicle or 16 pmoles of FGF2 with or without synthetic PTX3 peptides were prepared as described 24 and placed on top of the CAM of fertilized White Leghorn chicken eggs at day 11 of incubation (10 eggs per experimental group). After 72 hours, blood vessels converging towards the implant were counted by two observers in a double-blind fashion under a stereomicroscope (STEMI-SR, x2/0.12; Zeiss).

[6] = biological target: T1, FGF2; test: Solid phase binding assay, PTX3 proteins on FGF2-coated wells; set-up: made in house; host or cells: E. coli; details: proteins at 44 nM, 30 minutes at 37° C.
Procedure: as §1
Target sequence in this assay (P09038 134-288): as the sequence (P09038 134-288) above

[7] = biological target: T2, FGF2/PTX3 interaction (Homo sapiens, UniProt P09038+P26022); test: Solid phase binding assay, biotinylated PTX3 (bPTX3) binding to immobilized FGF2 with competitors; details: bPTX3 22 nM, competitor 10 fold-molar excess (220 nM)
T2 construct: biotinylated PTX3 (bPTX3, 22 nM) in the absence or in the presence of a 10 fold-molar excess of full length PTX3; made in house; host or cells: FGF2: E. coli; PTX3: Chinese hamster ovary cells
Procedure: ELISA microplates were incubated for 16 hours at 4° C. with 100 μl/well of 100 mM NaHCO3, pH 9.6 (coating buffer) containing FGF2 (270 nM). Then, wells were overcoated for 2 hours at room temperature with 5% dry milk in coating buffer. […] Then, 100 μl/well of the chromogen substrate 2,29-azinobis(3-ethylbenzthiazolinesulfonic acid) were added. Absorbance values were read at 405 nm in an automatic ELISA reader. In some experiments, 100-μl aliquots of PBS containing biotin-labeled PTX3 (bPTX3) (22 nM) were incubated for 30 minutes at 37° C. onto FGF2-coated wells with or without competitors. Then, wells were washed, and the amount of bound bPTX3 was evaluated as described^17. Alternatively, synthetic PTX3 peptides were immobilized on ELISA microplate wells (200 μg/well) as described above. Then, FGF2 (80 nM) was added and FGF2 bound to immobilized peptides was assessed by 1 hour incubation at 37° C. with a rabbit polyclonal anti-FGF2 antibody (1:7000) followed by immunocomplex detection as described above.

[8] = system: MAE cells; test: Cell proliferation assay, retrovirus infected MAE cells stimulated with FGF2; type: cell-based, murine; details: retroviral overexpression in MAE cells, FGF2 0.55 nM, 48 h
Excerpt: The cDNAs encoding for human PTX3 and for the enhanced green fluorescent protein (EGFP) were obtained as described^17. The cDNAs encoding for the N-terminal fragment PTX3(1-178) (Nterm-PTX3) and the C-terminal fragment PTX3(179-381) fused to the leader sequence for secretion PTX3(1-17) (sCterm-PTX3) were generated from pLX-PTX3^17 by PCR and standard cloning techniques. All cDNAs were cloned in the pBABE retroviral vector thus generating pBABE-PTX3, pBABE-Nterm-PTX3, pBABE-sCterm-PTX3, and pBABE-EGFP that were used to transfect the EcoPack2-293 packaging cells in the presence of Lipofectamin 17. Transduced cells were selected with puromycin (1 μg/ml, Sigma) for 2 weeks. Clones with a viral titer higher than […] were used for further experimentation. Confluent cultures of MAE cells were then incubated for 24 hours with the conditioned medium from pBABE-PTX3, pBABE-Nterm-PTX3, PBABE-sCterm-PTX3, or pBABE-EGFP packaging cells in the presence of polybrene (8 μg/ml, Sigma). Infected cell populations were selected for 7 days with puromycin. […] To assess the levels of transgene protein expression and release by infected cells, cell cultures were grown under serum-free conditions for 2 days. […]
Cell proliferation assay on endothelial cells was performed as described^22. […] After 24 or 48 h, respectively, cells were trypsinized and counted in a Burker chamber.

T2 sequence (P09038 134-288): as above
T2 sequence (P26022 18-381): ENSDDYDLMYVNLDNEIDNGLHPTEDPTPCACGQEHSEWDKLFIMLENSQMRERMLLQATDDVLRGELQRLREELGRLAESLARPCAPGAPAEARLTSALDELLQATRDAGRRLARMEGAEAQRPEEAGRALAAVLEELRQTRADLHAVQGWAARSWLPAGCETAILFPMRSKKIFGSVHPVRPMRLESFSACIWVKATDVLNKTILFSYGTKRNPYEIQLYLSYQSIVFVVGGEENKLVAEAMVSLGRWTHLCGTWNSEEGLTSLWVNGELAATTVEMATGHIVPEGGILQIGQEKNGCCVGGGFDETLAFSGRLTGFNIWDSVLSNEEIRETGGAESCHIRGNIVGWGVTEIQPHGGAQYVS

In the case of “APAEARLTSALDELLQATRDAGRRLA [PTX3(107-132)]”, the “binding of free FGF2 to immobilized peptide or PTX3” value (from here on “binding of free FGF2”) [1] is reported as “limited interaction”, the “inhibition of FGF2 binding to PTX3 immobilized to a BIAcore sensorchip” value (shortened to “inhibition of FGF2 binding”) [2] is reported as “no inhibitory effect” and the “inhibition of mitogenic activity exerted by FGF2” value [3] is reported as “ineffective”.

In the case of ARPCA [PTX3(100-104)], the “inhibition of FGF2 binding” value [2] is reported as “significant binding to FGF2” and the “inhibition of mitogenic activity exerted by FGF2” value [3] is reported as “inhibits”.

With ARPCAPGAPAE [PTX3(100-110)] the “inhibition of FGF2 binding” value [2] was “did not prevent the binding”.

For “CRP: classical short-pentraxin C-reactive protein”, the FGF2 binding [4] is listed as “inefficient FGF2 binders”.

With “DKLFIMLENSQMRERMLLQATDDVLRGEL [PTX3(57-85)]” the “binding of free FGF2” value [1] was “not”, the “inhibition of FGF2 binding” value [2] was “no inhibitory effect” and the “inhibition of mitogenic activity exerted by FGF2” value [3] was “ineffective”.

In the case of “DNEIDNGLHPTEDPTPCDCGQEHSEWDKLF [PTX3(31-60)]”, the “binding of free FGF2” value [1] is reported as “not”, the “inhibition of FGF2 binding” value [2] is reported as “no inhibitory effect” and the “inhibition of mitogenic activity exerted by FGF2” value [3] is reported as “ineffective”.

For “EGLRGELRGSREAELLRQAARAPACPLPE [scrambled PTX3(82-110), reference compound]”, the IC50 [2] was > 3000 µM.

With ESLARPCA [PTX3(97-104)] the “inhibition of FGF2 binding” value [2] was “did not prevent the binding”.

For ESLARPCAPGA [PTX3(97-107)], the “inhibition of FGF2 binding” value [2] was “significant binding to FGF2”.

For ESLARPCAPGAPAE [PTX3(97-110)], the “binding of free FGF2” value [1] was “binds”, the “inhibition of FGF2 binding” value [2] was “preventing its interaction with PTX3 immobilized to a BIAcore sensorchip” and the “inhibition of mitogenic activity exerted by FGF2” value [3] was “inhibits”. The “inhibition in the angiogenic response triggered by FGF2” value ([5]; 80 nmoles of peptide, FGF2 16 pmoles) was 50%.

With “FGF2: Human recombinant FGF2 expressed in E. coli; heparin-binding growth factor, the angiogenic stimulus” the “macroscopic vessels converging towards the implant” value [5] was 44±7 vessels/embryo.

In the case of “PTX3: Human recombinant PTX3 (swiss-prot P26022) expressed in Chinese hamster ovary cells; long-pentraxin”, the “binding of free FGF2” value [1] is reported as “binds”, the “binding to FGF2 immobilized to non-tissue culture plastic” value [6] is reported as “showed the capacity to bind FGF2” and the “FGF2 bound at the end of the injection phase” value ([2]; FGF2 0.8 μM over immobilized PTX3) is reported as 350-400 RU. For the same molecule, the “kinetic dissociation constant (koff) of FGF2/PTX3 interaction” value ([2]; FGF2 0.1 to 1.1 μM over immobilized PTX3) was 6e-05 s⁻¹, the “inhibition of FGF2 mitogenic activity by conditioned medium of infected MAE cells” value [3] was “significant inhibition” and the “inhibition of mitogenic activity exerted by FGF2” value [3] was “inhibit”. For the same molecule, the “prevention of bPTX3 binding to immobilized FGF2” value [7] was “prevents the capacity of bPTX3 to bind immobilized FGF2”, the “prevention of bPTX3 binding to immobilized FGF2” value ([7]; listed as full length PTX3) was “prevented the binding” and the “capacity of infected cells to proliferate in response to exogenous FGF2” value [8] was “significant decrease”.

For RGELQRLREELGRLA [PTX3(82-96)], the “binding of free FGF2” value [1] was “without interacting”, the “inhibition of FGF2 binding” value [2] was “ineffective” and the “inhibition of mitogenic activity exerted by FGF2” value [3] was “not”. For the same molecule, the “effect on angiogenic response triggered by FGF2” value ([5]; FGF2 16 pmoles) was “no effect”.

For RGELQRLREELGRLAESLAR [PTX3(82-101)], the “binding of free FGF2” value [1] was “without interacting”, the “inhibition of FGF2 binding” value [2] was “ineffective” and the “inhibition of mitogenic activity exerted by FGF2” value [3] was “not”.

In the case of “RGELQRLREELGRLAESLARPCAPGAPAE [PTX3(82-110)]”, the “binding of free FGF2” value [1] is reported as “binds”, the IC50 [2] is reported as 30 µM and the “potency relative to free full length PTX3” value ([2]; inhibition of FGF2 binding to PTX3 surface) is reported as 30 times lower. The “inhibition of mitogenic activity exerted by FGF2” value [3] was “inhibit”, the IC50 ([3]; dose-response, read-out: ID50, FGF2-antagonist activity on GM7373 cell proliferation) was 30 µM and the “macroscopic vessels converging towards the implant” value [5] was 28±5 vessels/embryo.

B1: sCterm-PTX3: C-terminal fragment PTX3(179-381) fused to the leader sequence for secretion PTX3(1-17) (protein)
chain: CETAILFPMRSKKIFGSVHPVRPMRLESFSACIWVKATDVLNKTILFSYGTKRNPYEIQLYLSYQSIVFVVGGEENKLVAEAMVSLGRWTHLCGTWNSEEGLTSLWVNGELAATTVEMATGHIVPEGGILQIGQEKNGCCVGGGFDETLAFSGRLTGFNIWDSVLSNEEIRETGGAESCHIRGNIVGWGVTEIQPHGGAQYVS
In the case of B1, the “inhibition of FGF2 mitogenic activity by conditioned medium of infected MAE cells” value [3] is reported as “ineffective” and the “capacity of infected cells to proliferate in response to exogenous FGF2” value [8] is reported as “No inhibition”.

B2: Cterm-PTX3: recombinant 6×His-tagged C-terminal fragment of PTX3 from E. coli (protein)
chain: CETAILFPMRSKKIFGSVHPVRPMRLESFSACIWVKATDVLNKTILFSYGTKRNPYEIQLYLSYQSIVFVVGGEENKLVAEAMVSLGRWTHLCGTWNSEEGLTSLWVNGELAATTVEMATGHIVPEGGILQIGQEKNGCCVGGGFDETLAFSGRLTGFNIWDSVLSNEEIRETGGAESCHIRGNIVGWGVTEIQPHGGAQYVSHHHHHH
With B2 the “binding to FGF2 immobilized to non-tissue culture plastic” value [6] was “No interaction”.
